The target in assay [1] is T1, chimeric protein rhVEGFR-1/Fc (human, UniProt P17948 27-758).
T1 construct: extracellular domain;domain: Fc region; Bought from R&D Systems; also called sVEGFR-1/Fc; not shown: Fc region of human immunoglobulins
Description: Western blotting. A general note: In western blotting, separated proteins are transferred to a membrane and probed.

The target in assay [2] is T2, sVEGFR-1 (soluble VEGFR-1) (Homo sapiens (Human), UniProt P17948 27-656).
T2 construct: Bought from RELIATech; also called soluble form of VEGFR-1
The experiment in a line: ELISA on plates coated with a soluble form of VEGFR-1. Background: An ELISA detects its analyte on a solid surface through an enzyme-linked reagent.

T2 sequence (P17948 other isoform, or with tags, fused parts or gaps limits assumed): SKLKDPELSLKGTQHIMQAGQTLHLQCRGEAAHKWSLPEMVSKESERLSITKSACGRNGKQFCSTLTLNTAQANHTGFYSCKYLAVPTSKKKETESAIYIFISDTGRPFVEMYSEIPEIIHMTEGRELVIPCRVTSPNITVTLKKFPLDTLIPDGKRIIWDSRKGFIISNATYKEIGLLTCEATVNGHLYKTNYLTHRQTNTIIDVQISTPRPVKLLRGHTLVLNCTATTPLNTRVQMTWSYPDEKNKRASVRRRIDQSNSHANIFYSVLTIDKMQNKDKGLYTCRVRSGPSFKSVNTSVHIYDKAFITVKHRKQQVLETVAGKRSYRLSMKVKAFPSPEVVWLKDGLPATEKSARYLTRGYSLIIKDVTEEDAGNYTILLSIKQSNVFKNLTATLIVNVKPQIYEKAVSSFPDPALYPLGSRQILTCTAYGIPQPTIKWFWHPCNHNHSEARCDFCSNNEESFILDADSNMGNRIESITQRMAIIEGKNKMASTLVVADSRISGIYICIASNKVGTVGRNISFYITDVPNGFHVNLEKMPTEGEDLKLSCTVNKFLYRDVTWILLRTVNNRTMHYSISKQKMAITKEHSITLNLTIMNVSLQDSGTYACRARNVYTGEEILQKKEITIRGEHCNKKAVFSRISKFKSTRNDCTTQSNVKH
T1 sequence (P17948 27-758, stated change not applied): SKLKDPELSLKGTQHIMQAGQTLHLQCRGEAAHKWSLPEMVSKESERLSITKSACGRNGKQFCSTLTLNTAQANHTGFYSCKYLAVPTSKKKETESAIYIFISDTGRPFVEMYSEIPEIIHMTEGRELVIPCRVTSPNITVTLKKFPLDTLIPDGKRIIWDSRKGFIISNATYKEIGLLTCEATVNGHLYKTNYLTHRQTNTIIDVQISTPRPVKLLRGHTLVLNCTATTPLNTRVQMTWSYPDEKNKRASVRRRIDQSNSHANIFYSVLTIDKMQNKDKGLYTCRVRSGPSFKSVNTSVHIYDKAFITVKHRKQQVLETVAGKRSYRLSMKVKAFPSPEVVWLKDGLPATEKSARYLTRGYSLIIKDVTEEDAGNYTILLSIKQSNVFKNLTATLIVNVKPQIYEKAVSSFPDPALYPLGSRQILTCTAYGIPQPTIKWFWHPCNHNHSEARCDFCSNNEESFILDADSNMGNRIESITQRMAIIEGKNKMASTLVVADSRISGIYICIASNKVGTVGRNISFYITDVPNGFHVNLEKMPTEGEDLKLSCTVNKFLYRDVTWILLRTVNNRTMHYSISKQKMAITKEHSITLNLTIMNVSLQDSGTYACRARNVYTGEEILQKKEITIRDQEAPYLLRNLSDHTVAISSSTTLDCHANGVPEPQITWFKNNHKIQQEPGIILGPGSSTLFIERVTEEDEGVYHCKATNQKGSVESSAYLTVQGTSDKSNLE

B1: monoclonal antibody D16F7 (antibody, V domains shown)
VH: QVQLQQPGSELVRPGASVKLSCKASGYIFTNYWMHWVKQRPGQGLEWIGEIYPRNGNTNYDEKFKGKATLTIDTSSSTAYMQLSSLTSEDSAVYYCATYLGDYWGQGTTLTVSS
VL: DVLMTQTPLSLPVSLGDQASISCRSSQSIVHSNGNTYLEWFLQKPGQSPKLLIYKVSNRFSGIPDRFSGSGSGTDFTLKISRVEAEDLGVYFCFQGSHVPYTFGGGTKLEIK
notes: Mouse IgG1 from a hybridoma (BALB/c mice immunized with peptide A4 as a MAP); also called D16F7 mAb; mAbD16F7
Turning to B1, the binding result in assay [1] and in assay [2] was “binds” each time.

The values are drawn from patent EP3440111B1 (Fondazione Luigi Maria Monti, dated 2023).
